Assay results as given in patent publication US20040018971A1 (published 2004).

Experiments:
[1] = molecular target: T1, HLA-DR7 (DRB1*0701) (human); assay: competition with 125I-labelled probe peptide on purified HLA-DR, gel filtration; IC50 of standard peptide / IC50 of test peptide
T1 construct: Purified HLA class II molecule

[2] = molecular target: T2, HLA-DR4w4 (DRB1*0401) (human); assay: as above
T2 construct: Purified HLA class II molecule

[3] = molecular target: HLA-DR1 (DRB1*0101) (human); assay: as above
[4] = molecular target: T3, HLA-A*0201 (human); assay: competitive inhibition of 125I-labeled probe peptide binding to purified HLA-A*0201
T3 construct: also called HLA-A2.1; A2.1

[5] = molecular target: HLA-A*1101 (purified HLA class I molecule) (human); assay: inhibition of 125I probe peptide binding to purified HLA; ratio to standard peptide; minus sign not explained
[6] = molecular target: T4, HLA-A*0301 (purified HLA class I molecule) (human); assay: as above
T4 construct: also called A3

[7] = molecular target: HLA-A*0206 (human); assay: competition with 125I probe peptide for purified HLA
[8] = molecular target: HLA-A*6802 (human); assay: as above
[9] = molecular target: HLA-A*0203 (human); assay: as above
[10] = molecular target: HLA-A*0202 (human); assay: as above
[11] = molecular target: T4, HLA-A*0301 (purified HLA class I …); assay: inhibition of 125I probe peptide binding to purified HLA; ratio to standard peptide
[12] = molecular target: T5, HLA-A*0101 (human); assay: competition with 125I-labelled probe peptide for purified HLA-A*0101, gel filtration
T5 construct: also called HLA-A1

[13] = molecular target: T6, HLA-DRB1*0401 (human); assay: competition with 125I-labeled standard peptide, purified HLA-DR, gel filtration
T6 construct: also called DR4w4

[14] = molecular target: T7, HLA-DRB1*0701 (human); assay: as above
T7 construct: also called DR7

[15] = molecular target: T8, HLA-DRB1*0101 (human); assay: as above
T8 construct: also called DR1

[16] = molecular target: T9, HLA-A*0101 (human); assay: competition with a 125I-labelled probe peptide for purified HLA-A*0101, gel filtration; ratio against the A*0101 standard peptide 944.02 [..] (25 nM)
T9 construct: Purified HLA molecule, 5 to 500 nM in the assay; also called HLA-A1

[17] = molecular target: HLA-A*0301 (purified HLA class I molecule) (human); assay: competition vs 125I standard peptide, purified HLA
[18] = molecular target: T10, HLA-A*1101 (purified HLA class I molecule) (human); assay: competition vs 125I standard peptide, purified HLA
T10 construct: Purified MHC molecule

[19] = molecular target: T11, HLA-A*3101 (purified HLA class I molecule) (human); assay: competition vs 125I standard peptide, purified HLA
T11 construct: Purified MHC molecule

[20] = molecular target: T12, HLA-A*3301 (purified HLA class I molecule) (human); assay: competition vs 125I standard peptide, purified HLA
T12 construct: Purified MHC molecule

[21] = molecular target: T13, HLA-A*6801 (purified HLA class I molecule) (human); assay: competition vs 125I standard peptide, purified HLA
T13 construct: Purified MHC molecule

IKVLRENTSPKANKE (also called Her2/neu.752) [HER2/neu peptide IKVLRENTSPKANKE (position 752)]
relative binding ratio [1]: -0.0011 ratio | relative binding ratio [2]: -0.0032 ratio | relative binding ratio [3]: -0.0005 ratio

ALCRWGLLLA [Her2/neu.5]
IC50 [4]: ≤ 500 nM

GMEHLREVR (also called Her2/neu.346 (9-mer)) [HER2/neu peptide, position 346, 9 amino acids]
relative binding ratio [5]: -0.0002 ratio (IC50 standard / IC50 test) | relative binding ratio [6]: -0.0002 ratio (IC50 standard / IC50 test)

ALCRWGLLLA [Her2/neu.5 (10-mer) ALCRWGLLLA]
IC50 [7]: 1950 nM | IC50 [8]: 2500 nM | IC50 [9]: 12 nM | IC50 [10]: 1960 nM

ESMPNPEGR [HER2/neu peptide, position 280, 9 amino acids]
relative binding ratio [5]: -0.0002 ratio (IC50 standard / IC50 test) | relative binding ratio [11]: 0.0003 ratio (IC50 standard / IC50 test)

CSKPCARVCY [HER2/neu peptide, position 334, 10 amino acids]
relative binding ratio [12]: 0.0016 ratio (IC50 of standard peptide / IC50 of test peptide)

B1: HER2/neu DR supermotif exemplary peptide ITDFGLARLLDIDET (position 861) (peptide)
peptide: ITDFGLARLLDIDET
notes: synthetic 15-mer; also called Her2/neu.861
relative binding ratio [13]: -0.0032 ratio (standard IC50 / test IC50) | relative binding ratio [14]: -0.0011 ratio (standard IC50 / test IC50) | relative binding ratio [15]: 0.0048 ratio (standard IC50 / test IC50)

B2: HER2/neu DR supermotif exemplary peptide PSTFKGTPTAENPEY (position 1234) (peptide)
peptide: PSTFKGTPTAENPEY
notes: synthetic 15-mer; also called Her2/neu.1234
relative binding ratio [13]: -0.0032 ratio (standard IC50 / test IC50) | relative binding ratio [14]: -0.0011 ratio (standard IC50 / test IC50) | relative binding ratio [15]: -0.0005 ratio (standard IC50 / test IC50)

TLEEITGY (also called Her2/neu.402 (8-mer)) [HER2/neu peptide, position 402, 8 amino acids]
relative binding ratio (IC50 of standard peptide / IC50 of test peptide) [16]: -0.0021 ratio

VTACPYNY (also called Her2/neu.296) [HER2/neu peptide, position 296, 8 amino acids]
relative binding ratio (IC50 of standard peptide / IC50 of test peptide) [16]: 0.1 ratio

ETLEEITGYLY (also called Her2/neu.401) [HER2/neu peptide, position 401, 11 amino acids]
relative binding ratio [12]: 0.44 ratio (IC50 of standard peptide / IC50 of test peptide)

YMIMVKCWM [Her2/neu.952]
IC50 [4]: ≤ 500 nM

QLMPYGCLL [Her2/neu.799]
IC50 [4]: ≤ 500 nM

VFETLEEITGY (also called Her2/neu.399) [HER2/neu peptide, position 399, 11 amino acids]
relative binding ratio (IC50 of standard peptide / IC50 of test peptide) [16]: 0.0045 ratio

GTDMKLRLPASPETH (also called Her2/neu.28) [HER2/neu peptide GTDMKLRLPASPETH (position 28)]
relative binding ratio [1]: -0.0013 ratio | relative binding ratio [2]: -0.0025 ratio | relative binding ratio [3]: 0.001 ratio

DMGDLVDAEEY [HER2/neu peptide, position 1013, 11 amino acids]
relative binding ratio [12]: 0.0027 ratio (IC50 of standard peptide / IC50 of test peptide)

HTVPWDQLFR (also called Her2/neu.478) [HER2/neu peptide, position 478, 10 amino acids]
relative binding ratio [17]: 0.0035 ratio (IC50 standard/IC50 test) | relative binding ratio [18]: 0.072 ratio (IC50 standard/IC50 test) | relative binding ratio [19]: 0.96 ratio (IC50 standard/IC50 test) | relative binding ratio [20]: 0.33 ratio (IC50 standard/IC50 test) | relative binding ratio [21]: 2 ratio (IC50 standard/IC50 test)

YMIMVKCWM [Her2/neu.952 (9-mer) YMIMVKCWM]
IC50 [8]: 1000 nM

KVLRENTSPK [HER2/neu peptide, position 753, 10 amino acids]
relative binding ratio [17]: 0.38 ratio (IC50 standard/IC50 test) | relative binding ratio [18]: 0.22 ratio (IC50 standard/IC50 test) | relative binding ratio [19]: 0.0068 ratio (IC50 standard/IC50 test) | relative binding ratio [20]: 0.0012 ratio (IC50 standard/IC50 test) | relative binding ratio [21]: 0.0008 ratio (IC50 standard/IC50 test)

THDPSPLQRY (also called Her2/neu.1103) [HER2/neu peptide, position 1103, 10 amino acids]
relative binding ratio (IC50 of standard peptide / IC50 of test peptide) [16]: 0.0015 ratio
